Data set [1] can be described thus: folding stability dG unfold from chymotrypsin proteolysis; higher = more stable. The method in brief:
(§1)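 Sequencing followed digestion of designed mini-proteins with trypsin and chymotrypsin, each at 11 concentrations in threefold dilutions together with a no-protease condition. The mini-proteins were under 80 residues, had no cysteine, sat in a PA-tagged cDNA display construct, and were kept only if AlphaFold2 dimer inter-PAE was above 15. From the counts, Bayesian fitting gave K50, and unfolding free energy was derived against a sequence-predicted unfolded-state K50 and a shared folded-state K50, per protease or combined.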

The nature of data set [2]: folding stability dG unfold from trypsin proteolysis; higher = more stable. The method in brief: as §1
Data set [3] in a line: folding stability dG unfold (combined trypsin and chymotrypsin); higher = more stable. A digest of the protocol: as §1

± gives the half width of the 95% confidence interval.

This note sets out measurements from the supplement of paper PMC12764529.

With “SAGGSAGGSAGGSNIEIEYNPNMMTIRIEPGDKPIEIQIKSPMTMEEFIKTALDKFPGISAGGSAGGSAGGS [r4_191_TrROS]”, the results for the “folding stability dG unfold” value in data set [1], in data set [2] and in data set [3] were 0.224 ± 0.18 kcal/mol, 0.394 ± 0.061 kcal/mol and 0.415 ± 0.28 kcal/mol, respectively.

Regarding “SAGGSAGGSAGGSNMYIEIDEIERNPDDWYQITVKIYNPDNGEKEKITFYMPPGQEIKISAGGSAGGSAGGS [r4_133_TrROS]”, the results for the “folding stability dG unfold” value in data set [1], in data set [2] and in data set [3] were 1.51 ± 0.12 kcal/mol, 0.896 ± 0.076 kcal/mol and 1.25 ± 0.2 kcal/mol, respectively.

“SAGGSAGGSAGGSPAVRIPLEVLKELIPPDLVVEVNPVPVPEEGGVLVPVRVVSPEEAASAGGSAGGSAGGS [r4_119_TrMRF]”: the results for the “folding stability dG unfold” value in data set [1], in data set [2] and in data set [3] were 1.13 ± 0.042 kcal/mol, 0.0931 ± 0.052 kcal/mol and 0.728 ± 0.18 kcal/mol, respectively.

For “SAGGSAGGSAGGSPFTIKIKMEQPNGRKRTYTIEGEGDLDQIAKELEKHYPGRIKDIEISAGGSAGGSAGGS [r4_412_TrROS]”, the “folding stability dG unfold” value in data set [1] was 0.783 ± 0.23 kcal/mol; in data set [2], -0.101 ± 0.31 kcal/mol; in data set [3] it was 0.548 ± 0.27 kcal/mol.

“SAGGSAGGSAGGSPGVGERVVPVEDGVVRVRVFPDFAVVEYENGGVETMTLDDLVRALSSAGGSAGGSAGGS [r4_242_TrMRF]”: the “folding stability dG unfold” value in data set [1] came out at 0.65 ± 0.053 kcal/mol; in data set [2], 0.497 ± 0.064 kcal/mol; in data set [3] it was 0.601 ± 0.14 kcal/mol.

As for “SAGGSAGGSAGGSPLKIKIVEVKEHKNPDGKPRRRIMMRFPNGRTLHIDMNGNLEIMPASAGGSAGGSAGGS [r4_111_TrROS]”, the figures for the “folding stability dG unfold” value in data set [1], in data set [2] and in data set [3] were 0.176 ± 0.32 kcal/mol, 0.0795 ± 0.19 kcal/mol and 0.188 ± 0.22 kcal/mol, respectively.

As for “SAGGSAGGSAGGSPNIYYTSGPFALVVTLPNGTKIVIPGSNIENLKNYNLISVEVVSTDSAGGSAGGSAGGS [r4_348_TrMRF]”, the results for the “folding stability dG unfold” value in data set [1], in data set [2] and in data set [3] were 1.81 ± 0.1 kcal/mol, 0.528 ± 0.065 kcal/mol and 1.4 ± 0.15 kcal/mol, respectively.

On to “SAGGSAGGSAGGSPPMPMRIDEVEYDPPNGRYEITVEPDNGNPQTITMPPGNIDEAYIVSAGGSAGGSAGGS [r4_51_TrROS]”, for which the “folding stability dG unfold” value in data set [1] amounted to 0.978 ± 0.042 kcal/mol; in data set [2] it was 1.47 ± 0.12 kcal/mol; in data set [3], 1.15 ± 0.16 kcal/mol.

For the sequence “SAGGSAGGSAGGSPSPLGKTRPALPASPVLKVPVTLPDDSLLTVYYDPLTGSLVVESYSSAGGSAGGSAGGS [r4_305_TrMRF]”, the “folding stability dG unfold” value in data set [1] stood at 0.414 ± 0.12 kcal/mol; in data set [2] it was 0.326 ± 0.026 kcal/mol; in data set [3], 0.467 ± 0.07 kcal/mol.

In the case of “SAGGSAGGSAGGSPVEIKLKELPDGVLVAEATFTLENGETVKIKAVYDKKTKKLHFELVSAGGSAGGSAGGS [r4_13_TrROS_Hall]”, the figures for the “folding stability dG unfold” value in data set [1], in data set [2] and in data set [3] were 3.5 ± 0.085 kcal/mol, 2.15 ± 0.086 kcal/mol and 3.09 ± 0.098 kcal/mol, respectively.

As for “SAGGSAGGSAGGSPYVQIRFEIPVWKFKPGGWEPVNPMPIPIWVPADDPPAAKDIAEEISAGGSAGGSAGGS [r4_153_TrROS]”, the “folding stability dG unfold” value in data set [1] is 0.839 ± 0.18 kcal/mol; in data set [2] it was 0.724 ± 0.07 kcal/mol; in data set [3], 0.849 ± 0.09 kcal/mol.

In the case of “SAGGSAGGSAGGSRTIYEPVPPDVAGTRLITFTSPDSEPLSTRTVSVTPVPGGRGAVILGSAGGSAGGSAGG [r7_64_JUSTAS]”, the “folding stability dG unfold” value in data set [1] was -0.918 ± 0.73 kcal/mol; in data set [2], -0.735 ± 0.44 kcal/mol; in data set [3], -0.599 ± 0.23 kcal/mol.

As for “SAGGSAGGSAGGSSAKDILDELKGITFFHPNGRRYRITDVEIEPHGDGWVLSIEMEPYPSAGGSAGGSAGGS [r4_299_TrROS]”, the “folding stability dG unfold” value was determined as 3.05 ± 0.034 kcal/mol in data set [1], 2.05 ± 0.057 kcal/mol in data set [2] and 2.7 ± 0.059 kcal/mol in data set [3].

Consider “SAGGSAGGSAGGSSGTSVSTEVSSSPVVTKTEYTKLDDGWSTTTTVVSTLPNALAPELTTSAGGSAGGSAGG [r7_845_JUSTAS]”, for which the “folding stability dG unfold” value in data set [1] amounted to 0.255 ± 0.024 kcal/mol; in data set [2], 1.06 ± 0.082 kcal/mol; in data set [3], 0.727 ± 0.079 kcal/mol.

For “SAGGSAGGSAGGSSIEELRRSPEVEVEVSTEKLPNGKTVTTVTLTPPDGVPTTIVLPEGSAGGSAGGSAGGS [r4_70_JUSTAS]”, the “folding stability dG unfold” value in data set [1] turned out to be 1.17 ± 0.041 kcal/mol; in data set [2], 0.266 ± 0.075 kcal/mol; in data set [3], 0.978 ± 0.14 kcal/mol.

“SAGGSAGGSAGGSSITIEEEGGKLRITVTNENGEKSEFEFPPGAKITLPEGVKLELEKESAGGSAGGSAGGS [r4_447_TrROS_Hall]”: the “folding stability dG unfold” value in data set [1] stood at 1.13 ± 0.019 kcal/mol; in data set [2], 0.549 ± 0.082 kcal/mol; in data set [3], 0.84 ± 0.073 kcal/mol.

Take “SAGGSAGGSAGGSSLYVPGKGYIVERDEAKGYLVIKPIEPDGIVPDAEVFYKPPSVPLISAGGSAGGSAGGS [r4_409_JUSTAS]”: the “folding stability dG unfold” value was -0.102 ± 0.43 kcal/mol in data set [1], -0.879 ± 0.22 kcal/mol in data set [2] and -0.271 ± 0.19 kcal/mol in data set [3].

On to “SAGGSAGGSAGGSSMTIEEQKEKIKKEVPLGKSVTIEYPDKTVTLTIDPKSGKITVTISSAGGSAGGSAGGS [r4_150_JUSTAS]”, for which the “folding stability dG unfold” value was found to be 1.44 ± 0.021 kcal/mol in data set [1], 0.61 ± 0.079 kcal/mol in data set [2] and 1.17 ± 0.12 kcal/mol in data set [3].
